Measured values reported in paper doi:10.1101/2022.03.25.485857.

Target: human α-thrombin (human)
Test: enzyme inhibition

Row | Substance | Ki [nM]
1 | chimadanin sulfated at both Tyr28 and Tyr31 (natural protein) | 0.1
2 | chimadanin with a single sTyr at Tyr28 (natural protein) | 0.6
3 | madanin-1 sulfated at both Tyr32 and Tyr35 (natural protein) | 0.5
4 | wildtype chimadanin (natural protein) | 12.9

The remaining substances from weak to strong by Ki, led by results:

Row | Ki [nM] | Substance
5 | 16 | wildtype madanin-1 (natural protein)
6 | 6.1 | madanin-1 with a single sTyr at Tyr35 (natural protein)
7 | 1.5 | chimadanin with a single sTyr at Tyr31 (natural protein)
8 | 1.3 | madanin-1 with a single sTyr at Tyr32 (natural protein)
